One assay addresses FcγRIIB-Acro (human) (UniProt P31994). The experiment in a line: SPR (Biacore T200), antibody captured on protein A sensor chip, Fc receptor as analyte; analyte range 3200nm-25nm. (In general: In SPR one partner is held on a chip, and binding of the other changes the refractive index at the surface.)
The target in assay [1] is FcγRIIIA-F176-Sino (human) (UniProt P08637). Description: SPR Biacore T200; binder captured on protein A chip, Fc receptor as analyte.

Broadly, the pKd is the negative decadic logarithm of the Kd, by convention in mol/L.

pKd: −log10 of the molar value.

Turning to PDL1-avelumab (antibody), the results for the pKd (in the assay with FcγRIIB-Acro (human); in assay [1]) were 5.48 and 6.25, respectively.

The record behind these values is patent US20240360201A1.
